In US20240336682A1 (SHENGHE CHINA BIOPHARMACEUTICAL, published 2024):
Where two headings read alike, the source gives them in different places. Each block holds one binder with its values, some of them ahead of it.

Assays:
TGFβ1 [1] = target: T1, TGFβ1 (UniProt P01137 279-390, limits assumed); assay: ELISA, TGFb1 coated at 1 ug/mL, HRP goat anti-human IgG-Fc
T1 construct: also called TGFβ1 protein
Procedure: (§1) TGFβ1 was diluted to 1 μg/mL with PBS buffer at pH 7.4, added into the 96-well ELISA plate at 100 μL per well, coated overnight at 4° C., and blocked with 1% BSA blocking solution for 1 hour. The plate was washed 3 times with PBST, and the constructed expressing antibodies were diluted to 20 µg/mL with 0.5% BSA sample diluent as the starting concentration, and then diluted by 3-fold gradient (11 gradients in total). A negative control (blank well and IgG1 isotype control) and a positive control were set, and the positive control was TGF-βR2 (Acro, Cat: TG2-H5252), and incubated at 37° C. for 1 h at 100 μL per well. The plate was washed 3 times with PBST, and then HRP-labelled goat anti-human IgG-Fc was diluted with the sample diluent at 1:10000. […] The absorbance value of each well in the 96-well plate was determined by selecting the wavelength of 450 nm and the reference wavelength of 570 nm on a multifunctional enzyme marker, and the absorbance value (OD)=OD₄₅₀ₙₘ−OD₅₇₀ₙₘ. The logarithm of the concentration of the constructed antibodies were taken as the abscissa, and the measured absorbance value of each well was taken as the ordinate, and the Sigmoidaldose-response (Variable Slope) method (GraphPad Prism software, GraphPad Software, San Diego, California) was selected for nonlinear regression to obtain the binding curve of the target antibodies to the TGFβ1 protein.

TGFβ1 [2] = target: T1, TGFβ1; assay: as above; remark: listed apart in the source
Procedure: as §1

TGFβ1 [3] = target: T1, TGFβ1; assay: as above; remark: listed apart in the source
Procedure: as §1

Human-CD24-His [4] = target: T2, Human-CD24-His (human, UniProt P25063 27-59); assay: ELISA, Human-CD24-His coated at 1 ug/mL, HRP goat anti-human IgG-Fc
T2 construct: also called CD24 protein; not shown: His tag
T2 chain (looked up): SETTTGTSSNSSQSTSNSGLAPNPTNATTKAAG
Procedure: (§2) Human-CD24-His was diluted to 1 μg/mL with PBS buffer at pH 7.4, added into the 96-well ELISA plate at 100 μL per well, coated overnight at 4° C., and blocked with 1% BSA blocking solution for 1 hour. The plate was washed 3 times with PBST, and the constructed antibodies were diluted to 20 μg/mL with 0.5% BSA sample diluent as the starting concentration, and then diluted by 3-fold gradient (11 gradients in total) and incubated at 37° C. for 1 h at 100 μL per well. The plate was washed 3 times with PBST, and then HRP-labelled goat anti-human IgG-Fc (jackson Cat: 109-035-098) was diluted with the sample diluent at 1:10000. 100 μL was added into each well, and incubated at room temperature for 1 hour. […] The absorbance value of each well in the 96-well plate was determined by selecting the wavelength of 450 nm and the reference wavelength of 570 nm on a multifunctional enzyme marker, and the absorbance value (OD)=OD₄₅₀ₙₘ−OD₅₇₀ₙₘ. The logarithm of the concentration of the constructed antibodies were taken as the abscissa, and the measured absorbance value of each well was taken as the ordinate, and the Sigmoidaldose-response (Variable Slope) method (GraphPad Prism software, GraphPad Software, San Diego, California) was selected for nonlinear regression to obtain the binding curve of the target antibodies to the CD24 protein.

Human-CD24-His [5] = target: T2, Human-CD24-His; assay: as above
Procedure: as §2

Human-NKP30-His [6] = target: T3, Human-NKP30-His (human, UniProt O14931 19-135); assay: ELISA, Human-NKP30-His coated at 0.5 ug/mL, HRP goat anti-human IgG-Fc
T3 construct: also called NKP30 protein; not shown: His tag
T3 sequence (looked up): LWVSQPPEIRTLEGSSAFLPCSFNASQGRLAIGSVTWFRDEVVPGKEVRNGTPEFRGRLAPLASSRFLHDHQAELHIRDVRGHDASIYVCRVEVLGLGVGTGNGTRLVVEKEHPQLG
Procedure: (§3) Human-NKP30-His was diluted to 0.5 μg/mL with PBS buffer at pH 7.4, added into the 96-well ELISA plate at 100 μL per well, coated overnight at 4° C., and blocked with 1% BSA blocking solution for 1 hour. The plate was washed 3 times with PBST, and the constructed antibodies were diluted to 10 μg/mL with 0.5% BSA sample diluent as the starting concentration, and then diluted by 3-fold gradient (11 gradients in total). A negative control (blank well and IgG1 isotype control) and a positive control were set, and the positive control was a NKP30 humanized antibody (sequence shown in SEQ ID No.32), and incubated at 37° C. for 1 h at 100 μL per well. […] The absorbance value of each well in the 96-well plate was determined by selecting the wavelength of 450 nm and the reference wavelength of 570 nm on a multifunctional enzyme marker, and the absorbance value (OD)=OD₄₅₀ₙₘ−OD₅₇₀ₙₘ. The logarithm of the concentration of the constructed antibodies were taken as the abscissa, and the measured absorbance value of each well was taken as the ordinate, and the Sigmoidaldose-response (Variable Slope) method (GraphPad Prism software, GraphPad Software, San Diego, California) was selected for nonlinear regression to obtain the binding curve of the target antibody to NKP30 protein.

Human-NKP30-His [7] = target: T3, Human-NKP30-His; assay: as above; remark: listed apart in the source
Procedure: as §3

Human-NKP30-His [8] = target: T3, Human-NKP30-His; assay: as above; remark: listed apart in the source
Procedure: as §3

Human-NKP30-His [9] = target: T3, Human-NKP30-His; assay: as above; remark: listed apart in the source
Procedure: as §3

T1 sequence (P01137 279-390 limits assumed): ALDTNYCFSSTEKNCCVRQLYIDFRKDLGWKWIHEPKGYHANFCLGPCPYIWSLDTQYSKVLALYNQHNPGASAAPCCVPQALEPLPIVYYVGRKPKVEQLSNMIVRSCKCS

EC50 (read off the curve) (TGFβ1 [1]): ~0.04 µg/mL
EC50 (read off the curve) (TGFβ1 [2]): ~0.03 µg/mL
EC50 (read off the curve) (TGFβ1 [3]): ~0.03 µg/mL
B1: TGF-βR2 (Acro, Cat: TG2-H5252) (receptor, UniProt P37173 23-159, looked up)
chain: TIPPHVQKSVNNDMIVTDNNGAVKFPQLCKFCDVRFSTCDNQKSCMSNCSITSICEKPQEVCVAVWRKNDENITLETVCHDPKLPYHDFILEDAASPKCIMKEKKKPGETFFMCSCSSDECNDNIIFSEEYNTSNPD
notes: Bought reagent

EC50 (read off the curve) (Human-CD24-His [4]): ~0.006 µg/mL
EC50 (read off the curve) (Human-CD24-His [5]): ~0.01 µg/mL
B2: Positive control (antibody, human IgG1, kappa, V domains shown)
VH: QVQLVQSGSELKKPGASVKVSCKASGYIFTDYAIHWVRQAPGQGLEWMGFINTATGEPTYADDFKGRFVFSLDTSVSTAYLQISSLKAEDTAVYFCTSGVHWGQGTLVTVSS
VL: DIQMTQSPSTLSASVGDRVTITCSASSSVSSMHWYQQKPGKAPKLLIYSTSNLASGVPSRFSGSGSGTEYTLTISSLQPDDFATYYCHHWTSYMYTFGGGTKVEIKR
notes: The sheet only prints 'Positive control'; also called CD24 monoclonal antibody

EC50 (read off the curve) (Human-NKP30-His [6]): ~0.02 µg/mL
EC50 (read off the curve) (Human-NKP30-His [7]): ~0.03 µg/mL
EC50 (read off the curve) (Human-NKP30-His [8]): ~0.03 µg/mL
EC50 (read off the curve) (Human-NKP30-His [9]): ~0.03 µg/mL
B3: NKP30 humanized antibody (antibody, V domains shown)
VH: EVQLVESGGGLVQPGGSLRLSCAASGITFSRSVMGWFRQAPGKLRELVAGITSDDNTDYADSVKGRFTISRDNSKNTLYLQMNSLRAEDTAVYYCNILPDSRLGWGQGTLVTVSS
notes: It was detected with anti-human IgG-Fc
